Measured values from US20230266317A1 (published 2023).

Tests used:
Assay in all cases: cell-based or functional assay
[1] = target: UspA2H of M. catarrhalis AERIS isolate 240, on bacteria (Moraxella catarrhalis)
[2] = target: UspA2H of M. catarrhalis AERIS isolate 415, on bacteria (Moraxella catarrhalis)
[3] = target: UspA2H of M. catarrhalis AERIS isolate 268, on bacteria (Moraxella catarrhalis)
[4] = target: UspA2H of M. catarrhalis AERIS isolate 296, on bacteria (Moraxella catarrhalis)
[5] = target: T1, UspA2 of M. catarrhalis strain ATCC 25238 (SEQ ID NO: 1), on bacteria (Moraxella catarrhalis)
T1 chain: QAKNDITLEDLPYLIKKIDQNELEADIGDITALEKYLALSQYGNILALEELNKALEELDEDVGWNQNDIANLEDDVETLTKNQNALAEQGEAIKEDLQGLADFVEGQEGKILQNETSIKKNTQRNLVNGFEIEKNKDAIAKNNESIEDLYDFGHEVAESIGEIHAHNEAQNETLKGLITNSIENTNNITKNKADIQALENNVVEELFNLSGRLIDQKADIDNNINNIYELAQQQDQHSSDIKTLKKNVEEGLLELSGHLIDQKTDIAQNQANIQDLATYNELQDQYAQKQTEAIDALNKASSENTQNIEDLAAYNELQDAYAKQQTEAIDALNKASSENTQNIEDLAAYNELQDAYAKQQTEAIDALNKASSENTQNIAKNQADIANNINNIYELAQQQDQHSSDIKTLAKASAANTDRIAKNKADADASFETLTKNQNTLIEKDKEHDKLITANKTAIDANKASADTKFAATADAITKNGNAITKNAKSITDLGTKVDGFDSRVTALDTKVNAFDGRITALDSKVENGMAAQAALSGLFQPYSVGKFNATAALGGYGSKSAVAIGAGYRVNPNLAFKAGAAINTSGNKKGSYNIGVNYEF

[6] = target: UspA2H of M. catarrhalis AERIS isolate 193, on bacteria (Moraxella catarrhalis)
[7] = target: UspA1 of M. catarrhalis strain ATCC 43617, on bacteria (Moraxella catarrhalis)
[8] = target: UspA2 of M. catarrhalis Denmark isolate BBH18 (wild type), on bacteria (Moraxella catarrhalis)
[9] = target: T2, UspA2 of M. catarrhalis Dutch isolate F10, on bacteria (Moraxella catarrhalis)
T2 chain: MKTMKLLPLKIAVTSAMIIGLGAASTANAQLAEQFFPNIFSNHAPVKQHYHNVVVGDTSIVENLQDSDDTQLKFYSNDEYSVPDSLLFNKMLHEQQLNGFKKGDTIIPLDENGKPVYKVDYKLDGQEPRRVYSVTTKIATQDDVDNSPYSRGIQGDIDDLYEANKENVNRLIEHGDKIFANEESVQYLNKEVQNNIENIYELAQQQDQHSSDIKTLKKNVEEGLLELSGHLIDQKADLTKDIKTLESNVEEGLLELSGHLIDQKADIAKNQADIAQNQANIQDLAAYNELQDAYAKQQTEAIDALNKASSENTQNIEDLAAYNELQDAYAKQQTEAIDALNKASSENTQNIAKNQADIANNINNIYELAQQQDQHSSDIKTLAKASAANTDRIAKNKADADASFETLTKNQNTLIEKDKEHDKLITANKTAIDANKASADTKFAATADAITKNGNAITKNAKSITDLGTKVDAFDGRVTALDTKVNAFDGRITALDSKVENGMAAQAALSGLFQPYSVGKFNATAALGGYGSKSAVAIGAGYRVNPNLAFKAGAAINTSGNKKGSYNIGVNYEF

B1: anti-UspA2 monoclonal antibody FHUSPA2/10 (antibody, V domains shown)
VH: EVQLQQSGTVLARPGASVKMSCKASGYSFTSYWMHWVKQRPGQGLEWIGAIYPGNSDTSYNQKFKGKAKLTAVTSASTAYMELSNLTNEDSAVYSCTLLRFLDAYWGQGTLVTVSA
VL: QIVLSQSPAILSASPGEKVTMTCRASSSVSYMHWYQQKPGSSPKPWIYATSNLASGVPARFSGSGSGTSYSLTISRVEAEDAATYYCQQWSSNPPTFGGGSKLEIK
bactericidal activity (mid-point titer) [1]: > 25600 mid-point titer (reciprocal dilution inducing 50% of killing)
bactericidal activity (mid-point titer) [2]: 256000 mid-point titer (reciprocal dilution inducing 50% of killing)
bactericidal activity (mid-point titer) [3]: > 384000 mid-point titer (reciprocal dilution inducing 50% of killing)
bactericidal activity (mid-point titer) [4]: 114000 mid-point titer (reciprocal dilution inducing 50% of killing)
bactericidal activity (mid-point titer) [5]: 1.88e+06 mid-point titer (reciprocal dilution inducing 50% of killing)
bactericidal activity (mid-point titer) [6]: > 640000 mid-point titer (reciprocal dilution inducing 50% of killing)
bactericidal activity (mid-point titer) [7]: < 100 mid-point titer (reciprocal dilution inducing 50% of killing)
bactericidal activity (mid-point titer) [8]: 386000 mid-point titer (reciprocal dilution inducing 50% of killing)
bactericidal activity (mid-point titer) [9]: 528000 mid-point titer (reciprocal dilution inducing 50% of killing)
